According to PMC7858072:

Target: MBP-FhtR (faecalis heme transport regulator fused to the maltose binding protein) (Enterococcus faecalis OG1RF)
Experiment: SEC; 40 uM apo- or holo- (hemin-complexed) MBP-FhtR in 100 ul loaded on Superdex 200 Increase 10/300 GL; 20 mM HEPES (pH 7), 300 mM NaCl; read at OD280 and OD410

Substance “MBP-FhtR (faecalis heme transport regulator fused to the maltose binding protein) (natural protein)” has a stoichiometry N of 2.
